Laboratory results as given in publication PMC4861259, “An Interplay of S-Nitrosylation and Metal Ion Binding for Astrocytic S100B Protein” (PLoS ONE, 2016).

B1: recombinant human S100B protein, unmodified (S100BSH) (natural protein, UniProt P04271 1-92, looked up)
chain: MSELEKAMVALIDVFHQYSGREGDKHKLKKSELKELINNELSHFLEEIKEQEVVDKVMETLDNDGDGECDFQEFMAFVAMVTTACHEFFEHE
notes: S100B protein, human, recombinant; Non-covalent homodimer; source: E. coli bacterial culture, purified (semi-preparative HPLC, C18)
B2: recombinant human S100B protein, S-nitrosylated at Cys84 (S100BSNO) (natural protein, UniProt P04271 1-92, looked up)
chain: MSELEKAMVALIDVFHQYSGREGDKHKLKKSELKELINNELSHFLEEIKEQEVVDKVMETLDNDGDGECDFQEFMAFVAMVTTACHEFFEHE
modifications: S-nitrosylated cysteine (SNO) at Cys84
notes: S100B protein, human, recombinant, chemically S-nitrosylated at Cys84; Non-covalent homodimer; also called S100BNO; S-nitrosylated S100B; source: E. coli, chemically S-nitrosylated, purified (semi-preparative HPLC, C18)

Molecular target: the molecule itself
Test: SEC; Superdex 75 10/300 GL; 200 μl of 100 μM protein loaded, before and after every ITC run, in the ITC buffers (10 mM TES pH 7.2 with 15 mM or 150 mM NaCl, with or without CaCl2)

Row | Protein | stoichiometry N
1 | B1 | 2
2 | B2 | 2
